Data reported in patent US20030091990A1, “Methods and compositions involving thymidine phosphorylase as a marker for HIV infection, aids progression, and drug resistance” (priority 2001, published 2003).

Tested on: resting CD4+ T lymphocytes
Assay: Affymetrix GeneChip Expression Analysis of resting CD4+ T lymphocytes
Assay type: cell-based
Conditions: incubated 3 hrs at 37° C.; Human Genome U95A chips; fold changes from +2.0 to -2.0 removed; comparison with Mock control
Protocol: To investigate the changes in RNA expression of resting CD4+ T lymphocytes by HIV-1, Affymetrix GeneChip® Expression Analysis was done. Purified resting CD4+ T lymphocytes (purity of >98%) prepared from a healthy donor by StemCell™ magnetic column technique were incubated with HIV-1213 ((M.O.I. 0.5-1), IL-16 (10 ng/ml), or MHC II peptide (50 μM, RK1) in a 37° C. humidified 5% CO2 incubator for 3 hrs). Then, total cytoplasmic RNA was extracted by using RNA isolation kit (Qiagen) according to the manufacturer's instructions. Isolated RNA was applied on the Human Genome U95A chips, containing 12,626 full-length genes (Affymetrix, Santa Clara, Calif.). Data were generated from hybridization intensities measured on GeneChip expression probe arrays and analyzed by GeneChip software provided by Affymetrix. In order to compare gene expression levels between two samples (Mock, HIV213, IL-16 and MHC II peptide), Comparison Analysis was performed on data from two separate probe array experiments by determining the relative changes in abundance for each transcript. All moderate increase, moderate decrease and no change were removed. All fold changes from +2.0 to −2.0 were also removed. […] TP (PDECGF) was one of the molecules that have shown great change in its mRNA level when CD4 T cells were signalled with HIV (48 fold change). […]

B1: IL-16: IL-16 (10 ng/ml) incubated with resting CD4+ T lymphocytes (protein, UniProt Q14005 1212-1332, looked up)
Interleukin-16: SAASASAASDVSVESTAEATVCTVTLEKMSAGLGFSLEGGKGSLHGDKPLTINRIFKGAASEQSETVQPGDEILQLGGTAMQGLTRFEAWNIIKALPDGPVTIVIRRKSLQSKETTAAGDS
  genes changed vs. Mock: 84 genes
